Laboratory results: patent publication US5808025

Legend:
[1] = biological target: L-selectin (human)
[2] = biological target: chimeric selectin L2P (human) (UniProt P16109)
[3] = biological target: chimeric selectin L2P3L (human) (UniProt P16109)

lymphocytes bound/HEV (lymphocytes bound/HEV) [1]: 0.05
lymphocytes bound/HEV (lymphocytes bound/HEV) [2]: 0.074
lymphocytes bound/HEV (lymphocytes bound/HEV) [3]: 0.08
Substance: LAM1-3 mAb (antibody)
